First the molecules themselves.
B1: GST-FnBPA-1 (domain or fragment)
chain: NEKNGPIIQNNKFEYKEDTIKETLTGQYDKNLVTTVEEEYDS
modifications: also: fused to GST carrier (carrier not in chain)
B2: GST-FnBPA-9 (domain or fragment)
chain: KYEQGGNIVDIDFDSVPQIHGQNKGNQSFEEDTEKDKP
modifications: also: fused to GST carrier (carrier not in chain)
B3: GST-FnBPA-10 (domain or fragment)
chain: KYEHGGNIIDIDFDSVPHIHGFNKHTEIIEEDTNKDKP
modifications: also: fused to GST carrier (carrier not in chain)
B4: GST-FnBPA-5 (domain or fragment)
chain: GGGQVTTESNLVEFDEESTKGIVTGAVSDHTTVEDTK
modifications: also: fused to GST carrier (carrier not in chain)
B5: GST-FnBPA-11 (domain or fragment)
chain: SYQFGGHNSVDFEEDTLPKVSGQNEGQQTIEEDTTPP
modifications: also: fused to GST carrier (carrier not in chain)

Ends that are not written are not given here.

The target in the experiment is Fn N-terminal domain fragment (Fn-NTD) (human). As to the kind of experiment: ITC. (Isothermal titration calorimetry measures the heat released or taken up as one component is titrated into another.)
Fn N-terminal domain fragment (Fn-NTD) (human), sequence (chain, as listed by the source): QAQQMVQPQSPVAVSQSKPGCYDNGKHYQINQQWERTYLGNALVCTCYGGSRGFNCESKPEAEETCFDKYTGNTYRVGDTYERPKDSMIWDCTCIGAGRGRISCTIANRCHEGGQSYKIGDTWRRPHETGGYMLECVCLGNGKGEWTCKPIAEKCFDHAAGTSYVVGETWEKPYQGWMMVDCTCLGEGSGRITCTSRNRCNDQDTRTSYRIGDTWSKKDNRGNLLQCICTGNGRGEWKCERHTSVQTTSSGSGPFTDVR
By Kd is commonly meant the free concentration of one partner at which half of the binding sites on the other are occupied at equilibrium, for simple one-to-one binding. Low readings indicate a tighter complex, high ones a looser complex. B1 gave a Kd of 4.8 nM.
As for B2, the figure is 7.3 nM; as for B3, 20 nM; as for B4, 44 nM.
As for B5, the figure is less than 1 nM.

(Values after PMC4951027 (2016).)
